T1: KP1.2 peptide of the D2E2 loop of the Nav1.7 channel (human, not fully specified)
T1 construct: also called human NAV1.7 peptide
T1 peptide: H-VELFLADVEGC-NH2

B1: 30G01 (antibody, V domains shown)
VH: QVQLQESGPGLVKPSGTLSLTCAVSGGSISSSNWWSWVRQPPGKGLEWIGEIYHSGNTNYNPSLKSRVTISVDKSKNQFSLKLSSVTAADTAVYYCVRGYYYDSGTSWGYYYGMDVWGQGTTVTVSS
VL: DIQMTQSPSSLSASVGDRVTITCRASQGISNYLAWFQQRPGRAPKSLIYAASSLQRGVPSKFSGSGSGTDFTLTISSLQPEDFATYYCQQYNSYPITFGQGTRLEIK
B2: 25A01 (antibody, V domains shown)
VH: QVQLVQSEAEVKKPGASVKVSCKASGYIFTTFGLSWVRQAPGQGLEWMGRITTNNGNTIYERRFQGRVTMTIDTSTTTAYMEMRSLTSDDTAVYYCARDGAPQDHWGQGTLVTVSS
VL: DIQMTQSPSSLSVSVGDRVIITCRASQDIRNSLAWFQQKPGKAPKSLIFAASSLQSGVPSKFRGSGFGTDFTLTITSLQPEDFATYYCQQYSSYPLTFGGGTKVEIK
notes: Detected with anti-human IgG
B3: 25F08 (antibody, V domains shown)
VH: QVQLVQSGPEVKKPGASVKVSCQASGYTFTTYGINWVRQAPGQGLEWMGRISAYNGNTNYAQKFQGRVTMTTDTSTRTAYMEMSNLISDDTAVYYCARDGAPQDHWGQGTLITVSS
VL: DIQMTQSPSSLSVSVGDRITITCRASQDISNSLAWFQQKPGKAPKSLIFAASSLQSGVPSKFSGSGSGTDFNFTISSLQPEDFATYYCQQYNSFPLTFGGGTKVEIK
notes: Detected with anti-human IgG
B4: 27A03 (antibody, V domains shown)
VH: EVQLVESGGGLVKPGGSLRLSCAASGFTFSTYSMNWVRQAPGKGLEWVSSISRSSSYIYYADSVKGRFTISRDNAKNSLSLQMNSLRAEDTAVYYCARGAAAGTDYWGQGTLVTVSS
VL: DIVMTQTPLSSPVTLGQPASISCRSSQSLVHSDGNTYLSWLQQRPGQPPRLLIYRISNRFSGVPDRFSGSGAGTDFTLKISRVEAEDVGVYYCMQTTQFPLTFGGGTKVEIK
B5: 35A10 (antibody, V domains shown)
VH: EVQLVESGGGLVKPGGSLRLSCAASGFTFSTYSMNWVRQAPGKGLEWVSSISRSSSYIYYADSVKGRFTISRDNAKNSLSLQMNSLRAEDTAVYYCARGAAAGTDYWGQGTLVTVSS
VL: DIVMTQSPLSLPVTLGQPASISCRSSQSLIYSDGNTYLNWFQQRPGQSPRRLIYKVSNRDSGVPDRFSGSGSGTDFTLKISRVEAEDVGVYYCLQGTLWPITFGQGTRLEIK
B6: 22G09 (antibody, V domains shown)
VH: QVQLVQSGAEVRKPGASVKVSCKASGYTFTDYAIHWVRQAPGQRLEWMGWIIVGNGKTRYSQKFQGRVTITWETSATTAYMDLSSLRSEDTAVYYCARGFTMVRGAPYYDGMDVWGQGTTVTVSS
VL: DIVMTQSPLSLPVTPGEPASISCRSSQSLLYTTGYNYLDWYLQKPGLSPQLLIYLGSYRASGVPDRFTGSGSGTDFTLKISRVEAEDVGVYYCMQALQAPTFGGGTKLEIK
notes: Detected with anti-human IgG
B7: 32A07 (antibody, V domains shown)
VH: QVQLVQSGPEVRNPGASVRVSCKASGYTFTDYALHWVRQAPGQRLEWMGWIIVGNGKTRYAQKFQGRVTITWETSASTAFMDLSSLRSEDTAVYYCARGFTMVRGAPYYDGLDVWGQGTTVTISS
VL: DIVMTQSPLSLPVTLGQPASISCRSSQSLIYSDGNTYLNWFQQRPGQSPRRLIYKVSNRDSGVPDRFSGSGSGTDFTLKISRVEAEDVGVYYCLQGTLWPITFGQGTRLEIK
B8: 35E11 (antibody, V domains shown)
VH: QVQLVQSGAEVRKPGASVKVSCKASGYTFTDYAIHWVRQAPGQRLEWMGWIIVGNGKTRYAQKLQGRVTITWETSASTAYMDLTSLRSEDTAVYYCARGFTMVRGAPYYDGLDVWGQGTTVTVSS
VL: DIVMTQSPLSLPVTPGEPASISCRSSQSLLYSTGYNYLDWYLQKPGLSPHLLIYLGSNRASGVPDRFSGSGSGTDFTLKISRVEAEDVGVYYCMQALQTPTFGGGTKVEIK
B9: 32D04 (antibody, V domains shown)
VH: QVQLVQSGPEVRNPGASVRVSCKASGYTFTDYALHWVRQAPGQRLEWMGWIIVGNGKTRYAQKFQGRVTITWETSASTAFMDLSSLRSEDTAVYYCARGFTMVRGAPYYDGLDVWGQGTTVTISS
VL: DIVMTQSPLSLPVSPGEPASISCRSSQSLLYSTGYNYLDWYLQKPGLSPQLLIYLGSIRASGVPDRFSGSGSGTDFTLSISRVEAEDVGIYYCMQALQTPTFGGGTKVEIK
notes: Detected with anti-human IgG
B10: 32E01 (antibody, V domains shown)
VH: QVQLVQSGAEVRKPGASVKVSCKASGYTFTDYAIHWVRQAPGQRLEWMGWIIVGNGKTRYSQKFQGRVTITWETSASTAYMDLSSLRSEDTAVYYCARGFTMVRGAPYYDGMDVWGQGTTVTVSS
VL: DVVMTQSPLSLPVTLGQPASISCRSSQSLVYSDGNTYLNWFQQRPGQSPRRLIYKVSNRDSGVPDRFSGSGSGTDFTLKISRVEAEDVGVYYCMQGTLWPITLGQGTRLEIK
B11: 28B08 (antibody, V domains shown)
VH: QVQLVQSGAEVRKPGASVKVSCKASGYTFTDYALHWVRQAPGQRLEWMGWIIVGNGKTRYAQKFQGRVTITWETSASTAFVDLNSLRSEDTAVYYCARGFTMVRGAPYYDGLDVWGQGTTVTVSS
VL: DIVMTQSPLSLSVTPGEPASISCRSSQSLLYSTGYNYLDWYLQKPGLSPQLLIYLGSNRASGVPDRFSGSGSGTDFTLKISRVEAEDVGFYYCMQALQAPTFGGGTKVEIK
notes: Detected with anti-human IgG; also called 28608
B12: 28C11 (antibody, V domains shown)
VH: QVQLVQSGAEVRKPGASVKVSCKASGYTFTDYAIHWVRQAPGQRLEWMGWIIVGNGKTRYAQKFQGRVTITWETSASTAYMDLSSLRSEDTAVYYCARGFTMVRGAPYYDGLDVWGQGTTVTVSS
VL: DIVMTQSPLSLPVTPGEPASISCRSSQSLLFSTGYNYLDWYLQKPGLSPQLLIYLGSNRASGVPDRFSGSGSGTDFTLKISRVEAEDVGVYYCMQALQTPTFGGGTKVEIK
notes: Detected with anti-human IgG
B13: 32B04 (antibody, V domains shown)
VH: QVQFVQSGAEVRKPGASVKVSCKASGYTFTDYAIHWVRQAPGQRLEWMGWIIVGNGKTRYSQKFQGRLTITWETSATTAYMDLSSLRSEDTAVYYCARGFTMVRGAPYYDGMDVWGQGTTVTVSS
VL: DIVMTQSPLSLPVTPGEPASISCRSSQSLLYTTGYNYLDWYLQKPGLSPQLLIYLGSYRASGVPDRFTGSGSGTDFTLKISRVEAEDVGVYYCMQALQAPTFGGGTKLEIK
notes: Detected with anti-human IgG; also called 32604
B14: 35A06 (antibody, V domains shown)
VH: QVQLVQSGAEVRKPGASVKVSCKASGYTFTDYALHWVRQAPGQRLEWMGWIIVGNGKTRYAQKFQGRVTITWETSASTAFMDLSSLRSEDTAVYYCARGFTMVRGAPYYDGLDVWGQGTTVTVSS
VL: DIVMTQSPLSLPVTPGEPASISCRSSQSLLYSTGYNYLDWYLQKPGLSPQLLIYLGSNRASGVPDRFSGSGSGTDFTLKISRVEAEDVGVYYCMQALQTPTFGGGTKVEIK
notes: Detected with anti-human IgG
B15: 25C01 (antibody, V domains shown)
VH: EVHLVESGGGLVQPGGSLRLSCSASRFTFSTSAMTWVRQAPGKGLEWVSVISASGTTTYYGDSVKGRFTISRDNSKNTLHLQMNSLRAEDTAVYYCAKGGLAVPGPNYWGQGTLVTVSS
VL: DVVMTQSPLSLPVTLGQPASISCRSSQSLVFSDGNTYLTWFQQRPGQSPRRLIYKVSDRDSGVPDRFSGSGSGTDFTLQISRVEAEDVGLYYCMQGSHWPLTFGGGTKVEIK
notes: Detected with anti-human IgG

In the test the target is T1, KP1.2 peptide of the D2E2 loop of the …. The test can be described thus: DELFIA: KP1.2 peptide on streptavidin plate, purified antibody undiluted, Eu-labelled anti-human IgG, time-resolved fluorescence at 615 nm. The method, then:
Four mice were immunised substantially as detailed in Table 6. The immunisations of Boost 6 each used 3 μg of KP1.2-KLH and 3 μg KP5.1-KLH, adjuvanted with IFA, CpG and Alum as set out in Table 6. A seventh booster immunisation was added, which consisted of 2 μg of KP1.2-KLH and 2 μg KP5.1-KLH, adjuvanted with IFA, CpG and Alum as set out in Table 6. Antibodies were isolated from these mice. 17 antibodies were identified using B-cell cloning technique as described above with labelled KP1.2 peptide (SEQ ID No:10). These 17 antibodies were further tested for binding to human NAV1.7 peptide using a DELFIA assay.
Streptavidin Even Coat 96 well plates (R&D Systems) were coated with 50 μL of 4 μg/ml KP1.2 peptide (SEQ ID No:10, synthesised by Mimotopes) diluted in 1×PBS (Sigma) for 1 hr at room temperature (RT). Plates were then washed 3× with 1×PBS+0.1% tween (200 μL/well). Plates were blocked with 200 μL PBS+1% BSA (Sigma) for 1 hr at RT. Plates were then washed again 3× with 1×PBS+0.1% tween (Sigma) (200 μL/well). Purified antibodies were then added non-diluted to washed plate and incubated for 1 hr at RT (50 μL/well). Plates were then washed 3× with 1×PBS+0.1% tween (200 μL/well). 50 μL/well of Dissociation-Enhanced Lanthanide Fluorescent Immunoassay (DELFIA) Europium-labelled Anti-Human IgG antibody (Perkin Elmer) diluted 1:500 in DELFIA assay buffer (Perkin Elmer) for 1 hr at RT. Plates were then washed 3× with DELFIA wash buffer (Perkin Elmer) (200 μL/well). 50 μL/well of DELFIA Enhancement Solution (Perkin Elmer, warmed to RT before use) was added to each well and incubated for 5 min at RT on shaker (Heidolph Titramax). […] Values were plotted using Prism (Graph Pad Prism).
B1: the binding result was “no binding (tested: undiluted, concentration not given)”. The same measure for B2: “binds”; for B3: “binds”; for B4: “no binding (tested: undiluted, concentration not given)”. Then B5, with “no binding (tested: undiluted, concentration not given)”; and B6, with “binds”; and B7, with “no binding (tested: undiluted, concentration not given)”. As to B8, the binding result is “binds”. On to B9, for which the binding result was “binds”.

Regarding B10, the binding result is “no binding (tested: undiluted, concentration not given)”. For B11, the binding result is on record as “binds”. On to B12, for which the binding result is given as “binds”. For the molecule B13, the binding result was “binds”. As to B14, the binding result is recorded as “binds”. Consider B15, for which the binding result is recorded as “binds”.

Values taken from patent publication US20170306013A1 (KYMAB, published 2017).
